This passage reports luciferase activity (antibody and EC50 results from US20210363266A1.

In assay [1] the target is human 4-1BB on the reporter cell strain HEK293F-h4-1BB-NFkB (human) (UniProt Q07011). The assay can be described thus: cell-based or functional assay.
Assay [2] addresses human 4-1BB His protein (Sinobiological, Beijing #10041-H08H) (human) (UniProt Q07011). The assay can be described thus: capture ELISA, antibody captured, biotinylated 4-1BB-his. For orientation: ELISA stands for enzyme-linked immunosorbent assay.

Broadly, the EC50 is the concentration that produces a half-maximal response. A higher EC50 goes with a need for much substance.

Chain of human 4-1BB on the reporter cell strain HEK293F-h4-1BB-NFkB (human) (Q07011 24-255): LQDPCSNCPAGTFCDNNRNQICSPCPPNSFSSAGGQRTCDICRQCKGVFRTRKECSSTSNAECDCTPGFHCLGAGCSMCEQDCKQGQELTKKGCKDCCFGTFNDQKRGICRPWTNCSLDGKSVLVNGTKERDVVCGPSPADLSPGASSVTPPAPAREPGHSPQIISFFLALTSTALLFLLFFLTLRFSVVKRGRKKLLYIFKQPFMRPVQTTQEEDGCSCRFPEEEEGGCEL
Chain of Urelumab (BMS) (antibody) (VH): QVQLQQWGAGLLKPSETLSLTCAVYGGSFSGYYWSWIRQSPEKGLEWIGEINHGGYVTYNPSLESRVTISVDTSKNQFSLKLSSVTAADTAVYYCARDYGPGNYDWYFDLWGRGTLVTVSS
Chain of Urelumab (BMS) (antibody) (VL): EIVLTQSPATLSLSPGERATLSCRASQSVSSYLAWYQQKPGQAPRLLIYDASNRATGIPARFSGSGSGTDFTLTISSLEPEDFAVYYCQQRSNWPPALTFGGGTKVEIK
Chain of human 4-1BB His protein (Sinobiological, Beijing #10041-H08H) (human) (Q07011 24-186 limits assumed): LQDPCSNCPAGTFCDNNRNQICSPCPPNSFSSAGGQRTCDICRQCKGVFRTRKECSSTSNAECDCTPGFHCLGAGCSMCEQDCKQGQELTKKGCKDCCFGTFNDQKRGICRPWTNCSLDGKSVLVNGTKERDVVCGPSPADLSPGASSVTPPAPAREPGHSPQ

Turning to Urelumab (BMS) (antibody), in assay [1], the luciferase activity (antibody at 10 nM) stood at 2190. In assay [2], this substance displayed an EC50 of 0.192 µg/mL.

Substance MOR7480 (Pfizer) (antibody) gave a luciferase activity (antibody at 10 nM) in assay [1] of 1000.

Regarding hIgG (antibody), the luciferase activity (antibody at 10 nM) in assay [1] was 290.
